Key:
P. aeruginosa = test: Organism growth against lysed blood background using trypsin, P. aeruginosa; assay type: cell-based; details: P. aeruginosa 10^2 cfu/ml, 10^−1 lysed blood, 1000 U/ml trypsin
Experimental: (§1) Approximately 10^2 cfu/ml organisms were spiked into a 10^−1 dilution of lysed blood in MH, containing 1000 U/ml trypsin. This was incubated at 37° C. for 4 hours, and aliquots were assayed at time 0, 1, 2, 3 and 4 hours.

E. coli [1] = test: Organism growth against lysed blood background using trypsin, E. coli; assay type: cell-based; details: E. coli 10^2 cfu/ml, 10^−1 lysed blood, 1000 U/ml trypsin
Experimental: as §1

[2] = tested on: bacterial adenylate kinase; test: AK reduction by different proteases over time for different organisms; assay type: biochemical; details: 37° C., 10 to 120 minutes; trypsin 1000, papain 10, proteinase K 2.5, chymotrypsin 1 U/ml
Experimental: • 1. Bacteria were scraped from plates and inoculated in approximately 20 ml of broth only. These were incubated overnight at 37° C. • 2. 10× stocks of the enzymes were prepared in broth only: • a. 10 mg of 16,000 U/mg Trypsin added to 16 ml of broth to give 10,000 U/ml (10×) stock. • b. 25 mg of 4 U/mg Papain added to 1 ml of broth to give 100 U/ml (10×) stock. • c. 10 mg of 7.5 U/mg proteinase K added to 3 ml of broth to give a 25 U/ml (10×) stock. • d. 10.5 ul of 239 U/ml chymotrypsin added to 239.5 ul of broth to give a 10 U/ml stock. • 3. The inoculums were then centrifuged at approximately 14030 RCF for one hour. • 4. The supernatant was then taken, tested for adenylate kinase activity (described below), and diluted with broth only if needed to give about 10^5 cpm/ml. • 5. The supernatant was then assayed for adenylate kinase activity at time point zero in triplicate and averaged. • 6. 1.5 ml solutions of the supernatants were prepared with the correct concentration of enzyme, or broth for control. These were incubated at 37° C. • 7. Samples were then taken and assayed in triplicate for adenylate kinase activity at 10, 30, 60 and 120 minutes. • 8. The triplicates were averaged, and normalised by dividing by the time point zero average. Adenylate Kinase Assay (AK Only No Cells) • 1. […] added to a cuvette. • 2. 50 μl of reagent 1 (ADP only; no lysis agent) added and vortexed briefly. • 3. After 5 minutes, the cuvette was placed into a luminometer. • 4. 50 μl of reagent 2 (dilution and luciferin/luciferase) firmly added directly to the sample. • 5. RLU read immediately.
The results are shown in FIG. 19 (S. epidermis), 20 (S. aureus), 21 (E. coli), 22 (E. faecalis), 23 (P. aeruginosa) and 24 (MRSA). Trypsin is still the protease of choice due to its consistency with both Gram +ve and Gram −ve bacteria.

[3] = tested on: lysed blood AK background; test: Lysed blood background with trypsin, negative (no organisms); assay type: biochemical; details: 10^−1 lysed blood, 1000 U/ml trypsin
Experimental: as §1

E. faecalis [4] = test: Organism growth against lysed blood background using trypsin, E. faecalis; assay type: cell-based; details: E. faecalis 10^2 cfu/ml, 10^−1 lysed blood, 1000 U/ml trypsin
Experimental: as §1

E. faecalis [5] = test: Trypsin digestion of intracellular bacterial AK, E. faecalis; assay type: cell-based; details: assayed immediately
Experimental: (§2) Experimental work used adenylate kinase-generated ATP to drive a luciferin/luciferase activity, giving results in RLUs as a quantitative measure of initial ATP levels. All AK assays were performed at pH 7.5, and 37° C. Results of the assay were read at ambient temperature.
(§3) Concentrations of 10^4 and 10^5 cfu/ml E. coli and E. faecalis where spiked into MH broth containing 1000, 200 and 0 (control) U/ml trypsin. These were assayed immediately.

AK in lysed blood = test: AK reduction by trypsin over time, saponin-lysed blood; assay type: biochemical; details: 10^−3 dilution of lysed blood, 5000, 1000, 200 U/ml trypsin, 37° C., up to 1 hour
Experimental: (§4) Purified AK (B. stearothermophilus) or a 10^−3 dilution of saponin-lysed blood was incubated for 1 hour at 37° C. in 5000, 1000, 200 and 0 (control) U/ml trypsin diluted in MH broth (‘trypsin/MH’). Aliquots were assayed at time 0, 15 minutes, 30 minutes and 1 hour.

organisms (11 species) = test: Effect of trypsin on organisms (bacterial growth); assay type: cell-based; details: trypsin 1000 and 200 U/ml, 10^3 cfu/ml, 37° C., 3 hours
Experimental: FIGS. 4 to 14 show bacterial growth in the presence of AK. Bacteria were: (4) E. coli; (5) E. faecalis; (6) P. aeruginosa; (7) S. aureus; (8) K. pneumoniae; (9) E. cloacae; (10) K. oxytoca; (11) P. vulgaris; (12) A. baumanii; (13) S. enteritidis; and (14) S. narcescens.
To assess whether trypsin affects bacterial growth, 10^3 cfu/ml organisms were spiked into 1000, 200 and 0 (control) U/ml trypsin/MH samples. These mixtures were incubated at 37° C. for 3 hours, and aliquots were assayed at time 0, 1, 2 and 3 hours.

[6] = target: bioluminescent system (luciferin/luciferase) (Photinus pyralis, UniProt P08659); test: Trypsin control: effect of trypsin on the bioluminescent system; assay type: biochemical
Sequence of bioluminescent system (luciferin/luciferase) (P08659 whole entry): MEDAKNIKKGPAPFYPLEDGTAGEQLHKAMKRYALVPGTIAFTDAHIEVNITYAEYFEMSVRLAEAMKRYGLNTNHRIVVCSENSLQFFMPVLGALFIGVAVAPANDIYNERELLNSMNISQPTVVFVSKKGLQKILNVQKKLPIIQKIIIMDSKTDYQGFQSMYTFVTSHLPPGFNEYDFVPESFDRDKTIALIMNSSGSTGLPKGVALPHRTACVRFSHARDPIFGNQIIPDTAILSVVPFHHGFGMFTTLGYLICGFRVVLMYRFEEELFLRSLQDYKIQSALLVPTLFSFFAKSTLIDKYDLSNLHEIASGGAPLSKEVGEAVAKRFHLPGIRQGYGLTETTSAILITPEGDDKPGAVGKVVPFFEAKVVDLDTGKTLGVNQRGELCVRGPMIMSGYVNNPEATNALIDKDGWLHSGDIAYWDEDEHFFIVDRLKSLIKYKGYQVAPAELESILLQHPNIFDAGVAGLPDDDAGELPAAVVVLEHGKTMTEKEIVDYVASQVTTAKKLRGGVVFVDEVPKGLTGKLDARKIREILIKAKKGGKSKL
Experimental: as §2
In preliminary experiments, the effect of trypsin on the bioluminescent system was assessed. Samples of trypsin at different concentrations, diluted in Mueller-Hinton (MH^+) broth, were spiked with ATP.

[7] = target: Purified AK (B. stearothermophilus) (Geobacillus stearothermophilus, UniProt P27142); test: AK reduction by trypsin over time, purified bacterial AK; assay type: biochemical; details: 5000, 1000, 200 U/ml trypsin, 37° C., up to 1 hour; compared with lysed blood AK
Sequence of Purified AK (B. stearothermophilus) (P27142 whole entry): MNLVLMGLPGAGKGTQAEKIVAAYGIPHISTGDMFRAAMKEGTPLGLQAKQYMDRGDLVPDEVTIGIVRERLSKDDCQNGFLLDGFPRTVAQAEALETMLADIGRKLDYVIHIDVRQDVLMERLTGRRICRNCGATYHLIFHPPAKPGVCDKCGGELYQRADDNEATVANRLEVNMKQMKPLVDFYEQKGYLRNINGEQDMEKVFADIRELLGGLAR
Experimental: as §4

[8] = tested on: AK in saponin-lysed blood; test: Trypsin digestion of AK in various concentrations of lysed blood; assay type: biochemical; details: 1000 U/ml trypsin
Experimental: Saponin-lysed blood was serially diluted and mixed with 1000 or 200 U/ml trypsin/MH. The mixtures were incubated at 37° C. for 4 hours, and aliquots assayed at time 0, 1, 2, 3 and 4 hours.

E. coli [9] = test: Trypsin digestion of intracellular bacterial AK, E. coli; assay type: cell-based; details: for Mean RLU: assayed immediately
Experimental: as §2, §3

B1: trypsin (protein, UniProt P00761 9-231, looked up)
Trypsin: IVGGYTCAANSIPYQVSLNSGSHFCGGSLINSQWVVSAAHCYKSRIQVRLGEHNIDVLEGNEQFINAAKIITHPNFNGNTLDNDIMLIKLSSPATLNSRVATVSLPRSCAAAGTECLISGWGNTKSSGSSYPSLLQCLKAPVLSDSSCKSSYPGQITGNMICVGFLEGGKDSCQGDSGGPVVCNGQLQGIVSWGYGCAQKNKPGVYTKVCNYVNWIQQTIAAN
Mean RLU (P. aeruginosa; 1 hr): 8,852 RLU
Mean RLU (P. aeruginosa; 2 hrs): 3,582 RLU
Mean RLU (P. aeruginosa; 3 hrs): 3,332 RLU
Mean RLU (P. aeruginosa; 4 hrs): 8,123 RLU
Mean RLU (P. aeruginosa; Time 0): overload
Mean RLU (E. coli [1]; 1 hr): 9,605 RLU
Mean RLU (E. coli [1]; 2 hrs): 7,460 RLU
Mean RLU (E. coli [1]; 3 hrs): 41,121 RLU
Mean RLU (E. coli [1]; 4 hrs): 353,541 RLU
Mean RLU (E. coli [1]; Time 0): overload
degradation of AK extracted from different organisms [2]: degraded the AK
Mean RLU ([3]; 1 hr): 7,864 RLU
Mean RLU ([3]; 2 hrs): 3,148 RLU
Mean RLU ([3]; 3 hrs): 2,001 RLU
Mean RLU ([3]; 4 hrs): 1,572 RLU
Mean RLU ([3]; Time 0): overload
Mean RLU (E. faecalis [4]; 1 hr): 10,099 RLU
Mean RLU (E. faecalis [4]; 2 hrs): 4,939 RLU
Mean RLU (E. faecalis [4]; 3 hrs): 15,587 RLU
Mean RLU (E. faecalis [4]; 4 hrs): 106,762 RLU
Mean RLU (E. faecalis [4]; Time 0): overload
Mean RLU (E. faecalis [5]; E. faecalis 10^4 cfu/ml, trypsin 200 U/ml): 13,310 RLU
Mean RLU (E. faecalis [5]; E. faecalis 10^4 cfu/ml, trypsin 1000 U/ml): 17,369 RLU
Mean RLU (E. faecalis [5]; E. faecalis 10^5 cfu/ml, trypsin 200 U/ml): 87,059 RLU
Mean RLU (E. faecalis [5]; E. faecalis 10^5 cfu/ml, trypsin 1000 U/ml): 103,959 RLU
digestion of AK in lysed blood by trypsin (AK in lysed blood): digested rapidly
effect on bacterial growth (organisms (11 species)): minimal (if any) effect on the organisms
Mean RLU ([6]; +ATP, trypsin 200 U/ml in MH broth): 68,036 RLU
Mean RLU ([6]; +ATP, trypsin 1000 U/ml in MH broth): 64,005 RLU
Mean RLU ([6]; +ATP, trypsin 5000 U/ml in MH broth): 81,276 RLU
Mean RLU ([6]; No ATP, trypsin 200 U/ml in MH broth): 646 RLU
Mean RLU ([6]; No ATP, trypsin 1000 U/ml in MH broth): 538 RLU
Mean RLU ([6]; No ATP, trypsin 5000 U/ml in MH broth): 414 RLU
background ATP-generating activity associated with trypsin ([6]; no ATP): little or no background ATP-generating activity
effect on bioluminescence signal ([6]; trypsin 5000 U/ml): boosted
effect on the bioluminescence reaction ([6]; trypsin levels ≦1000 U/ml): minimal/no effect on the bioluminescence reaction
degradation of purified bacterial AK by trypsin [7]: does not occur as dramatically or rapidly as the AK from lysed blood
reduction of background ([8]; 10^−1 dilution of blood, 4 hours): 25,000 fold
background RLU after trypsin digestion ([8]; 10^−1 dilution of blood, 4 hours, from approximately 100 million RLU): 4,000 RLU
time in which the vast majority of AK digestion occurs [8]: ≤ 2 h
Mean RLU (E. coli [9]; E. coli 10^4 cfu/ml, trypsin 200 U/ml): 7,197 RLU
Mean RLU (E. coli [9]; E. coli 10^4 cfu/ml, trypsin 1000 U/ml): 12,694 RLU
Mean RLU (E. coli [9]; E. coli 10^5 cfu/ml, trypsin 200 U/ml): 65,452 RLU
Mean RLU (E. coli [9]; E. coli 10^5 cfu/ml, trypsin 1000 U/ml): 106,552 RLU
AK signal from lysed bacteria lost during the AK reaction due to trypsin digestion (E. coli [9]; E. coli and E. faecalis, trypsin 200 and 1000 U/ml): 10-20%

B2: proteinase K (protein, UniProt P06873 106-384, looked up)
Proteinase K: AAQTNAPWGLARISSTSPGTSTYYYDESAGQGSCVYVIDTGIEASHPEFEGRAQMVKTYYYSSRDGNGHGTHCAGTVGSRTYGVAKKTQLFGVKVLDDNGSGQYSTIIAGMDFVASDKNNRNCPKGVVASLSLGGGYSSSVNSAAARLQSSGVMVAVAAGNNNADARNYSPASEPSVCTVGASDRYDRRSSFSNYGSVLDIFGPGTSILSTWIGGSTRSISGTSMATPHVAGLAAYLMTLGKTTAASACRYIADTANKGDLSNIPFGTVNLLAYNNYQA
notes: protease, 7.5 U/mg, used at 2.5 U/ml
degradation of AK extracted from different organisms [2]: degraded the AK in a similar manner to trypsin

B3: Papain (protein, UniProt P00784 134-345, looked up)
Papain: IPEYVDWRQKGAVTPVKNQGSCGSCWAFSAVVTIEGIIKIRTGNLNEYSEQELLDCDRRSYGCNGGYPWSALQLVAQYGIHYRNTYPYEGVQRYCRSREKGPYAAKTDGVRQVQPYNEGALLYSIANQPVSVVLEAAGKDFQLYRGGIFVGPCGNKVDHAVAAVGYGPNYILIKNSWGTGWGENGYIRIKRGTGNSYGVCGLYTSSFYPVKN
notes: protease, 4 U/mg, used at 10 U/ml
degradation of AK extracted from different organisms [2]: degraded the AK in a similar manner to trypsin
